# Assay results taken from patent US20260250402A1 (C O INMAGENE PTE, published 2026).
# Residue numbers refer to the chain shown, from its start.
# T1: human IL-7Ra expressed on CHOK1-human IL-7Ra cells (human, UniProt P16871 21-459)
# T1 construct: also called human IL-7Ra expressed on cell membrane; CD127
# T1 sequence: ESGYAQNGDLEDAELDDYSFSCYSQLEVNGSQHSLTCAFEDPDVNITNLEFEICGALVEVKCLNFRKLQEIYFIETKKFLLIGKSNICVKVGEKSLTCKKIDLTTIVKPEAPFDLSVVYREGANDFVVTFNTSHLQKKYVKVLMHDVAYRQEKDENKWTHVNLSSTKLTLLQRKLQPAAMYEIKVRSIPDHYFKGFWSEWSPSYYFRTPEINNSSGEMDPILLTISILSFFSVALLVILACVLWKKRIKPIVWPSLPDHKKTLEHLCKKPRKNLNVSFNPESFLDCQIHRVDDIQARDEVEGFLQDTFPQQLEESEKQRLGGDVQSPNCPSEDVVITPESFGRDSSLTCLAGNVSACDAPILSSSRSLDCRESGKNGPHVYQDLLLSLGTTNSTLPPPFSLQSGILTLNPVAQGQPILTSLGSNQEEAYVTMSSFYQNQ
# T2: Human his-tag IL-7Ra protein (human, UniProt P16871 21-239)
# T2 construct: Construct not described; Position of the tag unknown; also called IL-7Ra (Biacore analyte); not shown: his tag
# T2 sequence: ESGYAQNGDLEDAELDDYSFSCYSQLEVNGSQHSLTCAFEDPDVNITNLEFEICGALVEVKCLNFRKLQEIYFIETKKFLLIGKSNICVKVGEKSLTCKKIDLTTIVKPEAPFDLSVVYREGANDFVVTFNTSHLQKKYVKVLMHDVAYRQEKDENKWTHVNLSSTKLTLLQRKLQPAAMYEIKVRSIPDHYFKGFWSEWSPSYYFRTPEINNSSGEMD
# T3: cynomolgus IL-7Ra expressed on CHOK1-cyno IL-7Ra cells (cynomolgus, UniProt Q38IC7 21-459)
# T3 sequence: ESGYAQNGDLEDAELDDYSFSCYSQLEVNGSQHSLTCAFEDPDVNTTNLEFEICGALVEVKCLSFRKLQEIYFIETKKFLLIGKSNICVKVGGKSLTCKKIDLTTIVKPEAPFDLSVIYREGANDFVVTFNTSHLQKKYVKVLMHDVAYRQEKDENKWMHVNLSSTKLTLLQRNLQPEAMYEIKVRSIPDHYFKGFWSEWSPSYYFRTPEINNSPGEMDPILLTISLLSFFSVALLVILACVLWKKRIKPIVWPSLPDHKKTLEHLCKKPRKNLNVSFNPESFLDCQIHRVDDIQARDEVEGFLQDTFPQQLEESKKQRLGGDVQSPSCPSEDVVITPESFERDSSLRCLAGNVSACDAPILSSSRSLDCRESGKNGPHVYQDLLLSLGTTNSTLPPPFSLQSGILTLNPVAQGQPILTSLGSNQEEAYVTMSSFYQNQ
# B1: HuAb005 (antibody, V domains shown)
# VH: QVQLVQSGAEVKKPGASVKVSCKASGYRFTDYELHWVRQAPGQGLEWMGGIDPKTGGTAYNQKFKGRVTMTSDRSTSTVYMELSSLRSEDTAVYYCARSGGRWYFDVWGQGTTVTVSS
# VL: DIVLTQSPASLAVSPGQRATITCRTSESVSIHLLHLMHWYQQKPGQPPKLLIYGASNLESGVPARFSGSGSGTDFTLTINPVEAEDTANYYCQQSIKDPYTFGGGTKVEIK
# notes: Humanized version of cmAb011; also called humanized VL1 / humanized VH2
# B2: HuAb020 (antibody, V domains shown)
# VH: B1 VH with R38K, M48I, R67K, M70L
# VL: DIVLTQSPDSLAVSLGERATINCRTSESVSIHLLHLMHWYQQKPGQPPKLLIYGASNLESGVPDRFSGSGSETDFTLTISSLQAEDVAVYYCQQSIKDPYTFGGGTKVEIK
# notes: Humanized version of cmAb011; also called humanized VL4 / humanized VH5
# B3: HuAb019 (antibody, V domains shown)
# VH: B1 VH with R38K, M48I, R67K, M70L
# VL: B2 VL with L4M, E72G
# notes: Humanized version of cmAb011; also called humanized VL3 / humanized VH5
# B4: HuAb003 (antibody, V domains shown)
# VH: B1 VH with S72R, R74T
# VL: B2 VL with L4M, E72G
# notes: Humanized version of cmAb011; also called humanized VL3 / humanized VH1
# B5: HuAb011 (antibody, V domains shown)
# VH: B1 VH with R38K, M48I
# VL: B2 VL with L4M, E72G
# notes: Humanized version of cmAb011; also called humanized VL3 / humanized VH3
# B6: HuAb016 (antibody, V domains shown)
# VH: B1 VH with R67K, M70L
# VL: B2 VL
# notes: Humanized version of cmAb011; also called humanized VL4 / humanized VH4
# B7: HuAb004 (antibody, V domains shown)
# VH: B1 VH with S72R, R74T
# VL: B2 VL
# notes: Humanized version of cmAb011; also called humanized VL4 / humanized VH1
# B8: HuAb015 (antibody, V domains shown)
# VH: B1 VH with R67K, M70L
# VL: B2 VL with L4M, E72G
# notes: Humanized version of cmAb011; also called humanized VL3 / humanized VH4
# B9: HuAb012 (antibody, V domains shown)
# VH: B1 VH with R38K, M48I
# VL: B2 VL
# notes: Humanized version of cmAb011; also called humanized VL4 / humanized VH3
# B10: HuAb006 (antibody, V domains shown)
# VH: B1 VH
# VL: B1 VL with G72E
# notes: Humanized version of cmAb011; also called humanized VL2 / humanized VH2
# B11: HuAb002 (antibody, V domains shown)
# VH: B1 VH with S72R, R74T
# VL: B1 VL with G72E
# notes: Humanized version of cmAb011; also called humanized VL2 / humanized VH1
# B12: HuAb007 (antibody, V domains shown)
# VH: B1 VH
# VL: B2 VL with L4M, E72G
# notes: Humanized version of cmAb011; also called humanized VL3 / humanized VH2
# B13: HuAb008 (antibody, V domains shown)
# VH: B1 VH
# VL: B2 VL
# notes: Humanized version of cmAb011; also called humanized VL4 / humanized VH2
# B14: HuAb018 (antibody, V domains shown)
# VH: B1 VH with R38K, M48I, R67K, M70L
# VL: B1 VL with G72E
# notes: Humanized version of cmAb011; also called humanized VL2 / humanized VH5
# B15: HuAb017 (antibody, V domains shown)
# VH: B1 VH with R38K, M48I, R67K, M70L
# VL: B1 VL
# notes: Humanized version of cmAb011; also called humanized VL1 / humanized VH5
# B16: HuAb014 (antibody, V domains shown)
# VH: B1 VH with R67K, M70L
# VL: B1 VL with G72E
# notes: Humanized version of cmAb011; also called humanized VL2 / humanized VH4
# B17: HuAb010 (antibody, V domains shown)
# VH: B1 VH with R38K, M48I
# VL: B1 VL with G72E
# notes: Humanized version of cmAb011; also called humanized VL2 / humanized VH3
# B18: HuAb001 (antibody, V domains shown)
# VH: B1 VH with S72R, R74T
# VL: B1 VL
# notes: Humanized version of cmAb011; also called humanized VL1 / humanized VH1
# B19: HuAb009 (antibody, V domains shown)
# VH: B1 VH with R38K, M48I
# VL: B1 VL
# notes: Humanized version of cmAb011; also called humanized VL1 / humanized VH3
# Target: T1, human IL-7Ra expressed on CHOK1-human …
# Experiment: flow cytometry, CHOK1-human IL-7Ra cells
EC50,Top (MFI),Binder
0.188 µg/mL,22300 MFI,B1
0.115 µg/mL,22500 MFI,B2
0.536 µg/mL,22800 MFI,B3
0.21 µg/mL,21700 MFI,B4
0.256 µg/mL,20500 MFI,B5
0.113 µg/mL,23700 MFI,B6
0.2 µg/mL,21500 MFI,B7
0.158 µg/mL,24100 MFI,B8
0.159 µg/mL,20300 MFI,B9
0.177 µg/mL,21600 MFI,B10
0.115 µg/mL,22600 MFI,B11
0.209 µg/mL,21100 MFI,B12
0.171 µg/mL,20400 MFI,B13
0.105 µg/mL,24100 MFI,B14
0.0778 µg/mL,24600 MFI,B15
0.0529 µg/mL,23900 MFI,B16
0.152 µg/mL,20600 MFI,B17
0.17 µg/mL,22300 MFI,B18
0.0719 µg/mL,20900 MFI,B19

# Target: T2, Human his-tag IL-7Ra protein
# Experiment: SPR Biacore 8K, antibody Fc-captured, human his-tag IL-7Ra analyte, 1:1 model
Kd,koff,kon,Binder
0.214 nM,0.000238 s⁻¹,1.11e+06 M⁻¹ s⁻¹,B1
0.212 nM,0.000342 s⁻¹,1.61e+06 M⁻¹ s⁻¹,B4
0.181 nM,0.00029 s⁻¹,1.6e+06 M⁻¹ s⁻¹,B7
0.118 nM,0.00031 s⁻¹,2.64e+06 M⁻¹ s⁻¹,B13
0.188 nM,0.000267 s⁻¹,1.42e+06 M⁻¹ s⁻¹,B19

# Target: T3, cynomolgus IL-7Ra expressed on …
# Experiment: flow cytometry, CHOK1-cyno IL-7Ra cells
EC50,Top (MFI),Binder
0.207 µg/mL,16900 MFI,B1
0.124 µg/mL,17600 MFI,B2
0.687 µg/mL,18000 MFI,B3
0.239 µg/mL,16100 MFI,B4
0.241 µg/mL,17700 MFI,B5
0.128 µg/mL,17100 MFI,B6
0.206 µg/mL,16200 MFI,B7
0.189 µg/mL,17400 MFI,B8
0.165 µg/mL,17000 MFI,B9
0.191 µg/mL,16700 MFI,B10
0.126 µg/mL,15900 MFI,B11
0.244 µg/mL,17100 MFI,B12
0.221 µg/mL,17600 MFI,B13
0.0988 µg/mL,18400 MFI,B14
0.0891 µg/mL,17700 MFI,B15
0.0534 µg/mL,16700 MFI,B16
0.175 µg/mL,17500 MFI,B17
0.167 µg/mL,16000 MFI,B18
0.0711 µg/mL,16600 MFI,B19
